From the DeepSol protein solubility set

Test: soluble on expression in E. coli; label from the status in PepcDB or PDB records

Sequence | soluble on expression in E. coli
MNSQDAQNQVPPQKVDQEVDRLALMARAHQAIGELSDILVPLAAAFSSKGHSLYLVGGSVRDAFLGELGHDLDFTTSARPEETKAILDDYADVVWDTGIAFGTLSAEKHGQQIEITTFRSDLYDGNSRNPEVTFGDTLEGDLIRRDFKVNAMAVEIQADGELTFHDPVGGLEDLLTHTLDTPATPEQSFNDDPLRMLRAARFVSQLNFTLAPRVITAMTEMAQQITRITVERMQVELDKMILGKNPEAGIDLMVESGIAQIIYPEIPAMQMTQDEHMQHKDVYAHSLQVMRQAIDQEEDGPDLVLRWAALLHDCGKPDTRDFNEEGRVSFHQHEVVGAKLVRRRMRKLKYSKQMVGDVGQLVFLHMRFHGFSEGQWTDSAVRRYAADAGELLPRLHKLVRADCTTRNKRKAARLQATYDHLEERIAEIAAKEDLARVRPDLDGNEIMEILNIQAGPEVGKAWAFLKELRLERGPLDREVAIAELKSWWEGENNE | not soluble
MNSRIPEDLIERAHRGKTTKEDALLLLEVPPFELFRFADELRDLAAGDTVTYVVNRNINFTSRCTGSCGFCAFRTDDGKVLSIEEIMEKVREAEKANATEVCIQGGLLPDVGLDFYQGIVEAIKAEFPEMHVHSFSPMEVYHASRISEIPVKESLRRLKRSGLDTMPGTAAEILSDRVRKIICPAKLNTAEWIEVVTQAHAAGIPTTATMMYGHVETPEERINHMLTIREIQKETGGITEFVPLPFMPYNNPVGEKMIKEGRYATPGLEDLKVYAVSRILFHGHVDNIQASWVKLGKKFAQFSLHCGVNDLGGTLMEESISRSAGACHGEMITVDELEWMIHGAGRIPKERTTLYREAHELASRNSRKIAGCGAFE | not soluble
MNSSLSLLHPYPFEKLNVLFKDVTPADLPLIPLSIGEPKHPAPEFVKQAIIDNFNHLSTYPNSKGLPELRESIARWLTQRFQLNHISSEDHILPVTGTREGIFSFVQALINRDEAPYVVMPNPFYQIYEGATLLAGAKPYFINCTAENDYLGDFDAVPSEVWEKTALLFVCTPGNPTGAVLSKEKLKKLIQLSDQYNFVIASDECYSELWFDQAPVGLLEVCAEIGRDNYKNCIVFHSLSKRSNLPGMRSGFVAGDAELLKPYLKFRTYHGAAMPVQHQLASIAAWNDEAHVEENRQQYRAKFNLFQSELGQLIPLKKPDAGFYYWLHVDNDEAFAKMLMEKAHIKVLPGRYLSRETEQGNPGENHVRMALVADLAQCEQVVQRLKKVL | not soluble
MNTEVIHYIIRFLIGDESGNDQLLSRIGYTSKQSEMSRYSIVIRASNFFDSDIYGTDKAFPLLPLKEWEGVPLLFGEPTEELLEESDTLVLNADIVASTYFLISRYEEMYRRKLRDIHGRFPGRESLPFKAGFLQRPVVDEYGAILRTKIRQMGWPVKDPVPHFSMVNLTHDVDEPFEYRGWRSFARALIKERKSPFKAFRLAYANPASDRFFTFPRFVDWDKILRSKMPDCCRIIFFFKAPGKAPQDAPNYSLRKPLYQSLRSLVKNNGIVIGLHSNYSAGLNPELIGKQRKRLMSDTDMAVDCNRHHYLAAREPEDMQALISAGIRHDYTMGYADVAGFRLGTSRPVRFIMPSTRRLTELILHPLTLMDCTLHRQEYMGLDEATAIELCKELLMHTFIHGGEATLLWHNEYLSRDIHPWHARLYREVLRLIETMEEKQEEESFDYETAIDQ | not soluble
MNTGHDGALAYDEPIYLSDGNIINIGEFVDKFFKKYKNSIKKEDNGFGWIDIGNENIYIKSFNKLSLIIEDKRILRVWRKKYSGKLIKITTKNRREITLTHDHPVYISKTGEVLEINAEMVKVGDYIYIPKNNTINLDEVIKVETVDYNGHIYDLTVEDNHTYIAGKNEGFAVSASSGTLHHHHHH | soluble
MNTICKMRDIYKALSIFETAFEEVYGISLNEAMVLCALREAGKEITSTAIAERTEMAPSHTSKVIRAVEDKGLIRRALGEVDKRQMYFSLTEAGKKRLNELDLDKVEIPEMLKPLI | not soluble
MNTINANDLKTRGIAAIEAQLEEQPEAIIAVRGKDRYVVMQLEHYYYLRECELTAALAETRADLAAGRCEQESPEAHLARLDTLK | not soluble
MNTKPQLTLLKVQASYRGDPTTLFHQLCGARPATLLLESAEINDKQNLQSLLVIDSALRITALGHTVSVQALTANGPALLPLLDEALPPEVRNQARPNGRELTFPAIDAVQDEDARLRSLSVFDALRTILTLVDSPADEREAVMLGGLFAYDLVAGFENLPALRQDQRCPDFCFYLAETLLVLDHQRGSARLQASVFSEQASEAQRLQHRLEQLQAELQQPPQPIPHQKLENMQLSCNQSDEEYGAVVSELQEAIRQGEIFQVVPSRRFSLPCPAPLGPYQTLKDNNPSPYMFFMQDDDFTLFGASPESALKYDAGNRQIEIYPIAGTRPRGRRADGSLDLDLDSRIELEMRTDHKELAEHLMLVDLARNDLARICQAGSRYVADLTKVDRYSFVMHLVSRVVGTLRADLDVLHAYQACMNMGTLSGAPKVRAMQLIAALRSTRRGSYGGRVGYFTAVRNLDTCIVIRSAYVEDGHRTVQAGAGVVQDSIPEREADETRNKARAVLRAIATAHHAKEVF | soluble
MNTMLFSPYTIRGLTLKNRIVMSPMCMYSCDTKDGAVRTWHKIHYPARAVGQVGLIIVEATGVTPQGRISERDLGIWSDDHIAGLRELVGLVKEHGAAIGIQLAHAGRKSQVPGEIIAPSAVPFDDSSPTPKEMTKADIEETVQAFQNGARRAKEAGFDVIEIHAAHGYLINEFLSPLSNRRQDEYGGSPENRYRFLGEVIDAVREVWDGPLFVRISASDYHPDGLTAKDYVPYAKRMKEQGVDLVDVSSGAIVPARMNVYPGYQVPFAELIRREADIPTGAVGLITSGWQAEEILQNGRADLVFLGRELLRNPYWPYAAARELGAKISAPVQYERGWRF | soluble
MNTSILAPPESLLEAQKVRLAIREGYDRPTAGMANGLTQVNMISVPQDWAYDFLLYTQRNPQSCPVLDVIDAGQFQSRLIQDKQHDIRTDFPRYRIWEYGQCVDEVNDATSIWNNHPDLVTFLIGCSFSFESALLNAGIEVRHITDQRNVPMYLSNIPCASAGRISGNMVVSMRPIPAAQVSQAVQITAKMPRVHGAPVHIGDPKSLGIADLSKPDFGDFPRILDGEIPVFWACGVTPQAAVMRSKVPFAISHAPGYMLITDVPDQAWMLLEHHHHHH | not soluble
MNTTLFRWPVRVYYEDTDAGGVVYHASYVAFYERARTEMLRHHHFSQQALMAERVAFVVRKMTVEYYAPARLDDMLEIQTEITSMRGTSLVFTQRIVNAENTLLNEAEVLVVCVDPLKMKPRALPKSIVAEFKQ | soluble
MNTVADVMAGNDGEYCFHARTGKYGVYLKQDWRNEYNVGDIAVYEDSKPGTLNDFLIAPDEGDLKPDVVKRFEEMVAQAQQSAGAAAGNAQQTAQDVAAAATARDDAQRFAEKARQDATVTAEDRKATAEDVTSTGANAAAAGQSAQDAAGYARAAEQAKNDIDAALTGTLKTANHLSETAAAGEKAQQKSRDNLGLKSAATMEAQSDIYDRTKGRLAIPGAFGFGCAFLPEDVIRFDTKSDFLAWVRNALPGEYSVAGPYGIIIPDTRFEGVLSIRWTDARPETTEPRYRAKSLTFYGINGPIYHTRYCYWPISRLTGWVKINITTEDIIYRIVASSVRNRWGDPDIGGLIIAAYQGEADGDKVIRLVRGQSYRGSRLGPVGISVPGTPTGTYIVSPQFFITGCSEHSLPGSYCALSGVPDAHVSGAMPGLFIRTSRGMHRGN | not soluble
MNTVSPAKKKVIIIGAGIAGLKAASTLHQNGIQDCLVLEARDRVGGRLQTVTGYQGRKYDIGASWHHDTLTNPLFLEEAQLSLNDGRTRFVFDDDNFIYIDEERGRVDHDKELLLEIVDNEMSKFAELEFHQHLGVSDCSFFQLVMKYLLQRRQFLTNDQIRYLPQLCRYLELWHGLDWKLLSAKDTYFGHQGRNAFALNYDSVVQRIAQSFPQNWLKLSCEVKSITREPSKNVTVNCEDGTVYNADYVIITVPQSVLNLSVQPEKNLRGRIEFQPPLKPVIQDAFDKIHFGALGKVIFEFEECCWSNESSKIVTLANSTNEFVEIVRNAENLDELDSMLEREDSQKHTSVTCWSQPLFFVNLSKSTGVASFMMLMQAPLTNHIESIREDKERLFSFFQPVLNKIMKCLDSEDVIDGMRPIENIANANKPVLRNIIVSNWTRDPYSRGAYSACFPGDDPVDMVVAMSNGQDSRIRFAGEHTIMDGAGCAYGAWESGRREATRISDLLKLEHHHHHH | soluble
MNVEINGKSLELSFGFKFLREIDNRLGLKVEQASIGQGVSMLPVGLESGNPVVIGEVLIASTSHLKKQAITINNIDEALDEIAENIGLEEFGSDILTELGKRPMTRNLVEVVETEEKPAEALEHHHHHH | not soluble
MNVLICQQPKELVWKQREIPIPGDNEALIKIKSVGICGTDIHAWGGNQPFFSYPRVLGHEICGEIVGLGKNIADLKNGQQVAVIPYVACQQCPACKSGRTNCEKISVIGVHQDGGFSEYLSVPVANILPADGIDPQAAALIEPFAISAHAVRRAAIAPGEQVLVVGAGPIGLGAAAIAKADGAQVVVADTSPARREHVATRLELPLLDPSAEDFDAQLRAQFGGSLAQKVIDATGNQHAMNNTVNLIRHGGTVVFVGLFKGELQFSDPEFHKKETTMMGSRNATPEDFAKVGRLMAEGKITADMMLTHRYPFATLAETYERDVINNRELIKGVITF | not soluble
MNVLIVGSGGREHALAWKMKQSPKVKNVIVAPGNGGHSERIDINSNDLDAVADFCEKHNIHCVLIGPEEPLSNGLADHLIRIHPNLMVFGPLKDGAQLETSKSFSKHFMKEYGLPTADFVTVSIENVKSLDCVFERLPWKNSVVKADGLAAGKGVIIPRNNAEAVEAARSILHGQFGNAGRTVIIEERLEGYEVSALAFTDGISFKRMPLGKDHKRLLESDLGPNTGMGVVAPVSVPKEVDRQIDEIFEKTLKGLADRKIKYCGVLYAGFMIVDQKPLLLEFNCRFGDPETQVLMRLLESDLFEIISSCVNQTLNTCDINWSTKSVCGVVLASGNYPKSGDKGSPITEIPSPDSTNVVFHAGTSVINSQIVTNGGRILCVTSLADTLHDAREHANKIAQNIQFTGKQFRKDIGKTIDIGTPSLSYGSSGVNIDEGNQFVEDIKLLVKKTLLPGAAQIGGFGAVLDLKKAGFSNDSQLVVGIDGVGTKIEVATHCNNFTGVGYDVVAMCVNDVICHCAKPIAFLDYFVCGKLERSMATQVLTSISEACVEAECSLIGGETAEMPGVYSTHQWDLAGCAIAARESTWPMLPLSSEIRDGDVILGLPSSGLHSNGFSLARKILTVNGVKYNDPLPWDSKSTFGTELLRGTKLYVKKVLPLLSTGLVKGCAHITGGGLTENAIRVLDKNSKDSLVIDCASWKFREIFNWMAAAGPVDTKEMIRTFNCGIGMVLIVSPDNVEKVKKQLRKHEEEFYEIGHVENSKNGEAIKFVNEEKMFQREKYTTQRKRVRVAILISGTGTNMQKLIERSKTPDSNCDVVLVVSNKEGAGGLTIAASYGIPTKVVPHTADRVTGDTELAQVLKDFGTELVCLGGYMRILSPCFISQFPSRIINIHPSLLPAFKGAHALQDALNFGVRIVGCTAHFVDELVDHGDIIAQRPVVVEDTDTIETVRQKIQLQEHEMFPNAMIAVAAKILEK | not soluble
MNVLKQQITASIAKDIAFRLGAELNDEEADIFADGYNAAMLQNCNVVTSGKPLTITLPDTSSKAFWSSTGKNETFHPETYKRQVKEAIERSCVIAGIGVEVK | not soluble
MNVPSTSSTRGYAKYQIRSSGMPRVLANESDVFTLDDVDVDEETDELKPNRITITKEEEKSRLVECNLDSDEEEDKTPPKEDDKGQNIRLSSKNSSTVESKERCRLRDSFDLDNDDSLSDDLDLLPPIPGAPNANSSLCSKLHRFNCCNPRIPSKCTIM | soluble
MNVTFETTICAWDEKIPALLIRLVNTLLFCRTEEELRQSINKLRETAELDEFFTYGYGSHHFWCNQRISKGSMQFIQSRLFIATF | not soluble
